The data set can be described thus: protein stability index of a GFP-peptide fusion (GPS, HEK-293T) (PSI 1-6); higher = more stable. Particulars: c terminus: a fixed tail appended.

± gives the standard deviation.
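Note: 24-mer peptide tiles fused after GFP, lentivirally expressed, FACS-sorted into six equal bins by GFP/DsRed ratio, decoded by Illumina sequencing, PSI is the read-weighted mean bin number.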

WVKQQAEREAEKEQKRLERLQRKL [SDE2]: the protein stability index runs as follows: (treatment: DMSO) 4.18 ± 0.36; (treatment: MLN4924 1 uM, 8 h) 4.1 ± 0.33. For AFRWGAHLVQHQRIHSGEKPYECN [ZNF232] the same measures were 2.79 ± 0.25 and 2.87 ± 0.19. For GTCALWDVESGQLLQSFHGHGADV [GNB5], in that order: 2.75 ± 0.28 and 2.99 ± 0.51.

For HTMRKISNNITLREDQLDTVLAVL [INTS4], the protein stability index runs as follows: (treatment: DMSO) 2.39 ± 0.27; (treatment: MLN4924 1 uM, 8 h) 2.35 ± 0.21. For SPNFDGWFKTRRKEMTQKLEALHL [DENND6A] the same measures were 2.91 ± 0.18 and 3.2 ± 0.41. For CLPAGPRVYFLKGGYETFYSEYPE [DUSP5], in that order: 2.29 ± 0.22 and 2.28 ± 0.31. With SRTTCLFLHLRTHTEERPYECNHC [ZNF8], the protein stability index runs as follows: (treatment: DMSO) 2.62 ± 0.45; (treatment: MLN4924 1 uM, 8 h) 2.8 ± 0.43. For SSISHRFHKDCASRVNNASYCPHC [EHMT1] the same measures were 3.48 ± 0.67 and 4.11 ± 0.56.

Turning to SEDGSYGTDVTRCICGFTHDDGYM [KMT2E], the protein stability index (treatment: DMSO) came to 3.33 ± 0.42 and the protein stability index (treatment: MLN4924 1 uM, 8 h) is 3.36 ± 0.34.

Consider RASGEHVTDEEIESLMKDGDKNND [TNNC2], for which the protein stability index is, setting by setting: (treatment: DMSO) 5.66 ± 0.12; (treatment: MLN4924 1 uM, 8 h) 5.68 ± 0.2. Consider QLQVTEREEVRGRELTGLKALYET [LMNB1], for which the protein stability index was determined as 3.68 ± 0.18 (treatment: DMSO) and 3.98 ± 0.38 (treatment: MLN4924 1 uM, 8 h). Consider CSELNKLCQHFEAVHSGTPVTNNL [SPACA9], for which the protein stability index by setting is: (treatment: DMSO) 2.95 ± 0.47; (treatment: MLN4924 1 uM, 8 h) 2.97 ± 0.24. On to EGSYRIHVLHHGTGKWYELQDLQV [USP39], for which the protein stability index worked out at 2.73 ± 0.69 (treatment: DMSO) and 2.58 ± 0.77 (treatment: MLN4924 1 uM, 8 h). For MWDTKTLGLRQHHCRKCGQAVCGK [WDFY1], in that order: 3.21 ± 0.25 and 3.4 ± 0.27.

Regarding SLLGEPCAGPGFTHNIAHGSLGFE [SPAG8], the protein stability index came out at 3.03 ± 0.45 (treatment: DMSO) and 2.92 ± 0.4 (treatment: MLN4924 1 uM, 8 h). For SNFYTVAVTSLSSQIQYMNTVVST [TMEM106C], in that order: 3.13 ± 0.59 and 3.11 ± 0.49. For EHRHLNPDTELKRYFGARAILGEQ [TCF25], in that order: 3.46 ± 0.32 and 3.47 ± 0.54.

With LQTMLRQSAFLHLPLPEQIHKASA [INTS4], the protein stability index is, setting by setting: (treatment: DMSO) 2.56 ± 0.22; (treatment: MLN4924 1 uM, 8 h) 2.44 ± 0.15. The sequence KLSARDHQKLEREARICRLLKHSN [CAMK2B] showed a protein stability index (treatment: DMSO) of 3.16 ± 0.47 and a protein stability index (treatment: MLN4924 1 uM, 8 h) of 3.52 ± 0.17. Take SGWIFFYVPSSESFIIYLKNIVIA [P2RY14]: the protein stability index is 3.26 ± 0.53 (treatment: DMSO) and 3.09 ± 0.88 (treatment: MLN4924 1 uM, 8 h). For KNGKKWEILNFNQYYEACRKAAKS [ACSBG2], in that order: 2.49 ± 0.21 and 2.62 ± 0.57. On to EEGESLLCLACSAGYYELAQVLLA [ANKRD17], for which the protein stability index reads like this: (treatment: DMSO) 2.17 ± 0.4; (treatment: MLN4924 1 uM, 8 h) 2.39 ± 0.25. In turn, PNVYPAAPQGGMAALNMSLGMVTP [ADD1] showed a protein stability index (treatment: DMSO) of 3.26 ± 0.28 and a protein stability index (treatment: MLN4924 1 uM, 8 h) of 3.25 ± 0.21.

TSSGLATASFRTSKYLLEEWFQNC [TEKT4] came in with a protein stability index (treatment: DMSO) of 2.68 ± 0.21 and a protein stability index (treatment: MLN4924 1 uM, 8 h) of 2.7 ± 0.14.

As to SQVTATSGNGDFGDWSAFNQAPSG [CLINT1], the protein stability index runs as follows: (treatment: DMSO) 4.59 ± 0.068; (treatment: MLN4924 1 uM, 8 h) 4.36 ± 0.21. As for GGPGGRGPWSCENFNPLLVAGGVA [CEND1], the protein stability index runs as follows: (treatment: DMSO) 2.82 ± 0.23; (treatment: MLN4924 1 uM, 8 h) 2.72 ± 0.18. For EDHNENGHTPLMEAGSAGHVEVAR [ANKRD17], the protein stability index was 5.63 ± 0.12 (treatment: DMSO) and 5.36 ± 0.12 (treatment: MLN4924 1 uM, 8 h).

In the case of TLPTLPAKVYVGVKQEIAEMRIPA [NCF4], the protein stability index was determined as 3.36 ± 0.34 (treatment: DMSO) and 3.7 ± 0.39 (treatment: MLN4924 1 uM, 8 h). For RILWKKIQENQRNLYEEGRTAFLW [TRIM43], in that order: 2.08 ± 0.36 and 2.31 ± 0.28. For the sequence IKEQEVCKLQEQLEATVKKLEESK [SASS6], the protein stability index (treatment: DMSO) was 5.1 ± 0.27 and the protein stability index (treatment: MLN4924 1 uM, 8 h) came to 5.05 ± 0.25. For AIWDDTDSMYGECRTYIIHYYLMD [EFHC1], in that order: 2.83 ± 0.52 and 2.67 ± 0.64.

Sequence EIKSMKKRMSELCIDFNKNLNEDD displayed a protein stability index (treatment: DMSO) of 4.64 ± 0.6. In the case of PVYSVPQLLSAMGSLCSLWFGASV [SCNN1D], the protein stability index by setting is: (treatment: DMSO) 3.06 ± 0.056; (treatment: MLN4924 1 uM, 8 h) 3.37 ± 0.59. KQEMGTYLRFIVSRMKERAIDLNK [ZMYND11]: the protein stability index is, setting by setting: (treatment: DMSO) 2.9 ± 0.73; (treatment: MLN4924 1 uM, 8 h) 2.71 ± 0.69. For PSIMPQKHWVYVKRGGNCPAPAPL [ZBTB22], in that order: 2.85 ± 0.19 and 2.81 ± 0.32. For SLELDKMAHGYGEESEEERGLEPG [CHGB], in that order: 5.49 ± 0.46 and 5.41 ± 0.19. GRNFILFIIFGTMEEMQNKAVVFF [HACD3]: the protein stability index reads like this: (treatment: DMSO) 2.94 ± 1.4; (treatment: MLN4924 1 uM, 8 h) 2.36 ± 1.2.
